# Experimental data published in patent US20210246200A1 (UNIVERSIT T Z RICH, published 2021).
# Residue numbers refer to the chain shown, from its start. Numbers in names are those of the source.
# B1: 104348 (antibody, human IgG1, kappa, N297A, V domains shown)
# VH: EVQLVQSGAEVKKPGESLKISCKGSGYAFTNYLIEWVRQMPGKGLEWMGVINPGSGGTNYNEKFKGQVTISADKSISTAYLQWSSLKASDTAMYYCARWRGDGYYAYFDVWGQGTTVTVSS
# VL: AIRLTQSPSSFSASTGDRVTITCKASQSVDYDGDSYMNWYQQKPGKAPKLLIYAASNLESGVPSRFSGSGSGTDFTLTISSLQSEDFATYYCQQSNEDPYTFGGGTKVEIKR
# notes: VH5/VK1, human IgG1 N297A
# B2: NARA1 (antibody, mouse IgG2a, kappa, V domains shown)
# VH: QVQLQQSGAELVRPGTSVKVSCKASGYAFTNYLIEWVKQRPGQGLEWIGVINPGSGGTNYNEKFKGKATLTADKSSSTAYMQLSSLTSDDSAVYFCARWRGDGYYAYFDVWGAGTTVTVSS
# VL: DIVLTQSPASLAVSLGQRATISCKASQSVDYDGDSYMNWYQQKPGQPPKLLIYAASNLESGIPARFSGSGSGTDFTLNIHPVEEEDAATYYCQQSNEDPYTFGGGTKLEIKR
# notes: Mouse monoclonal anti-human IL-2 antibody, mouse IgG2a; also called anti-IL-2 (NARA1)-mIgG2a; anti-IL-2 (NARA1)-mouse IgG2a
# B3: 104343 (antibody, human IgG1, kappa, N297A, V domains shown)
# VH: QVQLVQSGAEVKKPGSSVKVSCKASGYAFTNYLIEWVRQAPGQGLEWMGVINPGSGGTNYNEKFKGRVTITADKSTSTAYMELSSLRSEDTAVYYCARWRGDGYYAYFDVWGQGTTVTVSS
# VL: DIVLTQSPLSLPVTLGQPASISCKASQSVDYDGDSYMNWYQQRPGQSPRLLIYAASNLESGVPDRFSGSGSGTDFTLKISRVEAEDVGVYYCQQSNEDPYTFGGGTKVEIKR
# notes: VH1/VK2, human IgG1 N297A
# B4: 104347 (antibody, V domains shown)
# VH: QVQLVESGGGVVQPGRSLRLSCAASGYTFSSYLIEWVRQAPGKGLEWVAVINPGSGGTNYADSVKGRFTISADKSKNTAYLQMNSLRAEDTAVYYCARWRGDGYYAYFDVWGQGTTVTVSS
# VL: EIVLTQSPATLSVSPGERATLSCRASQSVSYDGDSYMNWYQQKPGQAPRLLIYAASNLASGIPARFSGSGSGTEFTLTISSLQSEDAAVYYCQQSNEDPYTFGGGTKVEIK
# notes: VH3s/VK3s
# B5: 104349 (antibody, V domains shown)
# VH: B1 VH
# VL: DIVLTQSPLSLPVTLGQPASISCKASQSVDYDGDSYMNWYQQRPGQSPRLLIYAASNLESGVPDRFSGSGSGTDFTLKISRVEAEDVGVYYCQQSNEDPYTFGGGTKVEIK
# notes: VH5/VK2
# B6: 104348_VH5D98E_VK1D28Q (antibody, human IgG1, kappa, N297A, V domains shown)
# VH: B1 VH with D102E
# VL: B1 VL with D32Q
# notes: also called Antibody No: 1; parental antibody
# B7: Antibody No: 8 (antibody, human IgG1, kappa, N297A, V domains shown)
# VH: B1 VH with D102E, F108Y
# VL: B1 VL with D32Q, A54S
# notes: VK A50S; also called 108923
# B8: Antibody No: 12 (antibody, human IgG1, kappa, N297A, V domains shown)
# VH: B1 VH with N59Y, D102E
# VL: B1 VL with D32Q, M37L
# notes: VH N58Y; VK M33L; also called 108924
# B9: Antibody No: 13 (antibody, human IgG1, kappa, N297A, V domains shown)
# VH: B1 VH with N59Y, D102E
# VL: B1 VL with D32Q, A54S
# notes: VH N58Y; VK A50S; also called 108925
# B10: Antibody No: 15 (antibody, human IgG1, kappa, N297A, V domains shown)
# VH: B1 VH with N59Y, D102E
# VL: B1 VL with D32Q, M37L, A54S
# notes: VH N58Y; VK M33L + A50S; also called 108926
# B11: Antibody No: 20 (antibody, human IgG1, kappa, N297A, V domains shown)
# VH: B1 VH with N59Y, D102E, F108Y
# VL: B1 VL with D32Q, M37L, A54S
# notes: VK M33L + A50S; also called 108928
# B12: 108929 (antibody, human IgG1, kappa, N297A, V domains shown)
# VH: B1 VH with T30S, N59Y, D102E
# VL: B1 VL with D32Q, A54T
# B13: 108930 (antibody, human IgG1, kappa, N297A, V domains shown)
# VH: B1 VH with T30S, N59Y, D102E
# VL: B1 VL with D32Q, M37L, A54S
# B14: 104341 (antibody, V domains shown)
# VH: B3 VH
# VL: AIRLTQSPSSFSASTGDRVTITCKASQSVDYDGDSYMNWYQQKPGKAPKLLIYAASNLESGVPSRFSGSGSGTDFTLTISSLQSEDFATYYCQQSNEDPYTFGGGTKVEIK
# notes: VH1/VK1
# B15: 104344 (antibody, V domains shown)
# VH: B3 VH
# VL: B4 VL
# notes: VH1/VK3s
# B16: 104345 (antibody, V domains shown)
# VH: B4 VH
# VL: B14 VL
# notes: VH3s/VK1
# B17: 104346 (antibody, V domains shown)
# VH: B4 VH
# VL: B5 VL
# notes: VH3s/VK2
# B18: 104349_VH5D98E_VK2 (antibody, V domains shown)
# VH: B1 VH with D102E
# VL: B5 VL
# notes: Human IgG1 Fc domain with the N297A point mutation
# B19: 104349_VH5D98E_VK2D28Q (antibody, V domains shown)
# VH: B1 VH with D102E
# VL: B5 VL with D32Q
# notes: as for B18
# B20: 104349_VH5_VK2D28Q (antibody, V domains shown)
# VH: B1 VH
# VL: B5 VL with D32Q
# notes: as for B18
# B21: 104350 (antibody, V domains shown)
# VH: B1 VH
# VL: B4 VL
# notes: VH5/VK3s
# B22: 104343_VH1D98E_VK2D28Q (antibody, V domains shown)
# VH: B3 VH with D102E
# VL: B5 VL with D32Q
# notes: as for B18
# B23: 104343_VH1D98E_VK2 (antibody, V domains shown)
# VH: B3 VH with D102E
# VL: B5 VL
# notes: as for B18
# B24: 104343_VH1_VK2D28Q (antibody, V domains shown)
# VH: B3 VH
# VL: B5 VL with D32Q
# notes: as for B18
# B25: 104348_VH5D98E_VK1 (antibody, V domains shown)
# VH: B1 VH with D102E
# VL: B14 VL
# notes: as for B18
# B26: 104348_VH5_VK1D28Q (antibody, V domains shown)
# VH: B1 VH
# VL: B14 VL with D32Q
# notes: as for B18
# Biological target: T1, human IL-2 (wildtype) (human, UniProt P60568 21-153)
# T1 construct: also called IL-2 (WT); IL-2 wt
# Experiment: SET assay (solution equilibration titration, MSD)
# T1 sequence (P60568 21-153 limits assumed): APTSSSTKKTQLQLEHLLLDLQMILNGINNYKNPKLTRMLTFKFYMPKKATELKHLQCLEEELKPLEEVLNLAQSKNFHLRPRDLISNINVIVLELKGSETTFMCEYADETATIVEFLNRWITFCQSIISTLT
row,Binder,binding result
1,B1,binds
2,B2,binds
3,B3,binds
4,B4,binds
5,B5,binds

# Biological target: T2, Proleukin® (aldesleukin) (human, UniProt P60568 21-153, limits assumed)
# T2 construct: Variant of human wt IL-2 with C145S (C125S on mature IL-2); also called IL-2 (Proleukin®); human IL-2 (Proleukin)
# Experiment: ELISA, coated Proleukin, HEK293F supernatant 1:2
# Method: Subsequently, hIL-2 binding efficiency of the antibodies present in the supernatants was determined using ELISA. In brief, ELISA plates (Maxisorp 96-well black microtiter plate) were coated overnight at 4° C. with 100p/well of Proleukin® (5 μg/ml PBS). ELISA plates were washed once with TBST (1×TBS/0.05% Tween 20) using a plate-washer (BioTek). […] After removal of the blocking buffer, plates were washed once with TBST using the plate washer. Supernatants were diluted 1:2 in blocking buffer and 50 μl transferred to the designated well of the ELISA plate. Each sample was present on three ELISA plates. The three plates were incubated at RT under gentle agitation. […] The other two plates were washed either every hour three times with TBST for 4 hours or washed every hour three times for 12 hours before adding the detection antibody. […] Luminescence signal was measured after 5 minutes incubation in the dark. […] All ELISA values are mean values based on two measurements.
# T2 sequence (P60568 other isoform, or with tags, fused parts or gaps limits assumed): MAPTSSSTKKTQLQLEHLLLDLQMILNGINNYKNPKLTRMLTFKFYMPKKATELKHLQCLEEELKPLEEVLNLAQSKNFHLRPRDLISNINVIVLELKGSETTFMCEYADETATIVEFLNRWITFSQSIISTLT
Binder,ELISA value (Normal ELISA) [luminescence signal],ELISA value (wash 3x every hour for 4 HRS) [luminescence signal],ELISA value (wash 3x every hour for 12 HRS) [luminescence signal]
B6,1180,1060,717
B7,9370,7310,2530
B8,20000,17400,5960
B9,14500,14600,4520
B10,11100,10500,3800
B11,11700,11100,5200

# Biological target: T2, Proleukin® (aldesleukin)
# Experiment: ELISA, coated Proleukin, mean of 3 experiments;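 also: binding of anti-human IL-2 antibodies, tested as an 11-point dilution series for 2 hours, to plate-bound IL-2, detected via streptavidin-HRP with absorbance read at 450 nm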
# Method: ELISA plates (Corning) were coated with human IL-2 (Proleukin) at 10 μg/mL in PBS overnight at 4° C. The plates were washed 6 times with PBST, then blocked in 1% BSA/PBST for 2 hours. After blocking and washing, the anti-human IL-2 antibodies were added on the plate in an 11-point dilution series in 1% BSA/PBST and incubated for 2 hours. […] The plates were then washed again and incubated with Streptavidin-Horseradish Peroxidase in 1% BSA/PBS for 45 minutes. After washing, the substrate (R&D Systems) was added into the plates and the enzymatic reaction was stopped after 3 minutes by adding Stop Solution. The plates were read by a microplate reader at 450 nm with a wavelength correction set to 540 nm.
row,Binder,EC50 [nM]
1,B6,1.18
2,B1,0.3
3,B12,0.15
4,B13,0.06
5,B7,0.05
6,B8,0.11
7,B9,0.06
8,B10,0.05
9,B11,0.71
10,B2,0.3
11,B14,0.4
12,B3,0.3
13,B15,0.7
14,B16,2.9
15,B17,1.7
16,B4,39
17,B5,0.3
18,B18,0.56
19,B19,0.66
20,B20,0.43
21,B21,0.8
22,B22,0.75
23,B23,0.57
24,B24,0.59
25,B25,0.77
26,B26,0.97

# Biological target: T2, Proleukin® (aldesleukin)
# Experiment: ELISA, coated Proleukin, serially diluted supernatant
row,Binder,EC50 [nM]
1,B6,1.04
2,B7,0.24
3,B8,0.25
4,B9,0.19
5,B10,0.28
6,B11,0.27

# Biological target: T2, Proleukin® (aldesleukin)
# Experiment: SET assay (solution equilibration titration, MSD)
# Method: A 22 serial 2n dilution of the antigen was prepared in sample buffer. A constant concentration of the antibody was added. […] A volume of 60 μl of each antigen:antibody mix was distributed in duplicates to a 384-well polypropylene microtiter plate (PP MTP). Sample buffer served as negative control and a sample containing no antigen as positive control (Bₘₐₓ). The plate was sealed and incubated overnight (o/n) at room temperature (RT). A 384-well standard MSD array plate was coated o/n with 2 μg/ml of IL-2. After three times washing with washing buffer, the plate was blocked with 50 μl/well blocking buffer for 1 hour at RT. After washing, a volume of 30 μl/well of the antigen:antibody mix was transferred from the PP MTP to the coated MSD plate and incubated for 20 min at RT. After an additional wash step, 30 μl of detection antibody (diluted 1:2000) in sample buffer was added to each well and incubated for 30 min at RT. The MSD plate was washed and 35 μl/well of read buffer was added and incubated for 5 min. ECL signals were measured with the MSD SECTOR Imager 6000.
row,Binder,Kd [nM]
1,B6,0.272
2,B1,0.105
3,B2,0.078
4,B3,0.075
5,B4,10
6,B5,0.082
7,B18,0.178
8,B19,0.188
9,B20,0.069
10,B22,0.111
11,B23,0.098
12,B24,0.069
13,B25,0.206
14,B26,0.155
